From patent publication US11976099B2, “Compositions and methods for treatment of bone associated diseases” (THE NATIONAL INSTITUTE FOR BIOTECHNOLOGY IN THE NEGEV LTD., priority 2016, dated 2024)
“And” between values parts separate entries of the source, which are not always exact repeats. Equal values may be shown once.

Legend:
[1] = test system: CTX-I (carboxy-terminal collagen crosslinks); test: CTX-I serum ELISA in ovariectomized mice (bone resorption); type: in vivo, C57 Rcc mice; design: CTX-I serum-concentration: unit not given here; conditions: 0.1 mg/kg
Description: In order to assess the effect of M-CSF variant on bone resorption, 10 weeks old C57 Rcc mice were ovariectomized resulting in a decrease in estrogen secretion similar to what occurs in osteoporosis. Two weeks post-surgery the mice were treated with M-CSF5.6 variant in three concentrations-0.1 mg/kg, 0.5 mg/kg and 15 mg/kg, in order to test the effect on bone resorption and to find the optimal dosage. For a period of 4 days, 0.1 and 0.5 mg/kg M-CSF5.6 treated mice received subcutaneous injections twice a day, while 15 mg/kg M-CSF5.6 treated mice received a daily subcutaneous injection. Mice were sacrificed 18-24 hours after the final injection. The amounts of type I collagen fragments in the blood were measured using CTX-I (carboxy-terminal collagen crosslinks) ELISA.
Animals were randomly divided into 2 control groups (SHAM, PBS) and 4 treatment groups (0.1, 0.5 and 15 mg/kg M-CSF5.6 and 0.1 mg/kg Alendronate as positive control). Except for the SHAM group, all animals were ovariectomized. *, ^, + represent a Haemolytic-serum sample, an unsuccessful ovariectomy procedure (as determined post mortem) and an outlier, respectively. CTX-I serum-concentration values of mice with unsuccessful ovariectomy were excluded from the analysis.

[2] = target: αvβ3 integrin (Homo sapiens, UniProt P05106+P06756); conditions: natural ligand and inhibitor; read-out: binding affinities of αvβ3 integrin; cited from earlier work
Sequence of αvβ3 integrin (P06756 31-1048): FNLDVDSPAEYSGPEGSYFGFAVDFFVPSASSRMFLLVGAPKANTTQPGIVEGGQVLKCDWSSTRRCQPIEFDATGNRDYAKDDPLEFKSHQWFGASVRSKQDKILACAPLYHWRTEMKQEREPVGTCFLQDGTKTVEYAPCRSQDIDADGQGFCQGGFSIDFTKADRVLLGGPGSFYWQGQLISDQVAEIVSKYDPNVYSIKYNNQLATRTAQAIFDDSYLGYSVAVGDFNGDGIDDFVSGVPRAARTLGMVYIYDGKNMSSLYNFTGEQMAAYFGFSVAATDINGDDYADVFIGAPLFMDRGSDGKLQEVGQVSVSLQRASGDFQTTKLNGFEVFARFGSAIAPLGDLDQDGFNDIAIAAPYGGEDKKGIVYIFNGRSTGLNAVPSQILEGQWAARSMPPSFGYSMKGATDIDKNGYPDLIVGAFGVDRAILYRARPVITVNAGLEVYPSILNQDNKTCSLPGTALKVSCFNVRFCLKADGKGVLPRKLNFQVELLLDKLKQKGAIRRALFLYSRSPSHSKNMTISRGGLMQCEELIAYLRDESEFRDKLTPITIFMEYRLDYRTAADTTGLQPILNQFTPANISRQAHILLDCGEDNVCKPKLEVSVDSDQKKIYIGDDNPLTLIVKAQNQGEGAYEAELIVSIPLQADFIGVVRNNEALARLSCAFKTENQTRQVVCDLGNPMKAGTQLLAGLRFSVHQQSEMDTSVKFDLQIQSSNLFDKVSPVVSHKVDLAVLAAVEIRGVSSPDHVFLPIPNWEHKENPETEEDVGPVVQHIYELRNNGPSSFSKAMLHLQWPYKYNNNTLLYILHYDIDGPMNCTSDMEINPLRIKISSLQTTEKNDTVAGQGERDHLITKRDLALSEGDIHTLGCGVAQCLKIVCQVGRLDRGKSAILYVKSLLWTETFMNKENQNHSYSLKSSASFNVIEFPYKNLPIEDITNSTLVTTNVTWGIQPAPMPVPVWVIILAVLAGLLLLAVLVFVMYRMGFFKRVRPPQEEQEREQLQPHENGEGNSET
Sequence of αvβ3 integrin (P05106 27-788): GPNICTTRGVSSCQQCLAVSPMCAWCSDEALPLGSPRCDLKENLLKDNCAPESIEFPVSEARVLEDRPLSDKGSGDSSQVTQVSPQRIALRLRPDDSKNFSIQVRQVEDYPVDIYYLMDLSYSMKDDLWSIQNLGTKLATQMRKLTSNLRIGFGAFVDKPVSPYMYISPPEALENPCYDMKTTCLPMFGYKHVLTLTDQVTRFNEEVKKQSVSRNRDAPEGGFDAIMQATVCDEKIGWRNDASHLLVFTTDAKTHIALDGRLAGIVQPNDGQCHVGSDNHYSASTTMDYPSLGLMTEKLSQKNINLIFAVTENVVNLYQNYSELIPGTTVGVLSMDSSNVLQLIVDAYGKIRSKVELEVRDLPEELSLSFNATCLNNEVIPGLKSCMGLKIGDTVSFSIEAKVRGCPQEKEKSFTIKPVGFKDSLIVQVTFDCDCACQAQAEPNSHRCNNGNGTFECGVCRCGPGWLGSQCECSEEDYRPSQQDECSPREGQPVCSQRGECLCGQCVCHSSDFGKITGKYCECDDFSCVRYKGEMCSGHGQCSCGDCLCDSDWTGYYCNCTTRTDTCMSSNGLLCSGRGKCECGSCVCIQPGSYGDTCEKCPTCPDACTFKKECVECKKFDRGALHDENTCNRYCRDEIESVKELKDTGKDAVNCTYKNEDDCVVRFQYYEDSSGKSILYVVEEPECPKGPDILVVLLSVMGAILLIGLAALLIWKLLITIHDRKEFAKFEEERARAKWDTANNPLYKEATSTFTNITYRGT

[3] = test system: mature osteoclasts; test: Actin ring formation in mature osteoclasts; type: cell-based, mouse; conditions: inhibitors 5 μM added to mature osteoclasts for 24 h; F-actin staining
Description: FIG. 23 are example pictures showing Actin ring formation in mature osteoclasts incubated with M-CSFRGD variants. Murine BMMs were allowed to differentiate into osteoclasts in the presence of M-CSF and RANKL for 72 h. Then, the cells were incubated for additional 24 h without (positive control) or with inhibitors (5 μM) followed by fixation and staining for F-actin and nuclei. Cells were able to form a solid actin ring (white arrowheads), scattered actin ring (white arrows) or amorphous actin distribution (barbed arrowheads). Pictures are representatives of 35 images acquired from five different wells per sample.
For a mature osteoclast to resorb bone properly, it must form unique structure termed “sealing zone”; this structure consists of an actin ring made from a dense actin mesh connected by adhesion complexes called podosomes. The formation of the actin ring involves several stages: at the beginning, podosomes are formed throughout the cell in a scattered manner, then groups of podosomes form small actin structures named belts and upon osteoclast maturation, the belts are moving to the cell periphery, cluster, and form the actin ring. Podosomes contain high levels of αvβ3 integrin which is essential for the formation of a proper actin ring with condensed podosome network. […]

[4] = BS^3 chemical cross linking / SDS-PAGE dimerization assay; type: physicochemical
Description: Then, Tris was added to a final concentration of 30 mM and the mixture was incubated for 15 min at room temperature. Samples were denaturized and loaded on 15% SDS-PAGE. The gels were stained with coomassie blue (InstantBlue, Expedeon, CA, USA) and visualized with MiniBis pro (DNR Bio-Imaging Systems, Jerusalem, Israel).
BS^3 crosslinking assay—Human (4 μg) and murine M-CSFWT (1 μg), M-CSFC31S (1 μg) and M-CSFC31S,M27R (2.5 μg) were incubated with different concentrations of BS^3 [bis(sulfosuccinimidyl)suberate] (ThermoFisher Scientific, MA, USA) cross linker (0, 25 μM, 100 μM, 250 μM, 500 μM, 1000 μM and 2500 μM) for 30 min at room temperature. Then, […] was added to a final concentration of 30 mM, and the mixture was incubated for 15 min at room temperature. Samples were denaturized with sample buffer, boiled, and loaded on 15% SDS-PAGE for protein separation. The gels were stained with InstantBlue staining (Expedeon, CA, USA) for 40 min, followed by two washing steps with double distilled water. The gels were visualized with MiniBis pro (DNR Bio-Imaging Systems, Jerusalem, Israel).
Experiments were conducted in order to verify that the purified variants are incapable of dimerizing. The purified variants were incubated with a cross linker reagent (BS^3 [bis(sulfosuccinimidyl)suberate]) to enhance and visualize non-covalent intermolecular interactions. Following incubation, the reactions were stopped and the samples were loaded in denaturized conditions on a protein gel.
To validate the structural and computational analysis and to verify that M-CSFC31S,M27R is indeed a monomer, several biophysical assays were conducted. First, purified murine and human M-CSFWT, M-CSFC31S and M-CSFC31S,M27R were crosslinked via lysine residues using different amounts of BS^3 reagent [bis(sulfosuccinimidyl)suberate], and the proteins sizes were evaluated using SDS-PAGE (FIG. 16A). Murine M-CSFWT served as positive control, since it has a lysine in the dimerization site (K68), which facilitates the intermolecular cross-linking of the two monomers in the dimer. […] The dimer band became more prominent at higher BS^3 concentrations. It is likely that the non-covalent dimerization allows other lysines in M-CSFC31S to come into close proximity and crosslink.

[5] = target: human c-FMS (Homo sapiens, UniProt P07333); conditions: previously disclosed (Elegheert et al. 2012); read-out: KD of M-CSF to c-FMS receptor; cited from earlier work
Sequence of human c-FMS (P07333 20-972): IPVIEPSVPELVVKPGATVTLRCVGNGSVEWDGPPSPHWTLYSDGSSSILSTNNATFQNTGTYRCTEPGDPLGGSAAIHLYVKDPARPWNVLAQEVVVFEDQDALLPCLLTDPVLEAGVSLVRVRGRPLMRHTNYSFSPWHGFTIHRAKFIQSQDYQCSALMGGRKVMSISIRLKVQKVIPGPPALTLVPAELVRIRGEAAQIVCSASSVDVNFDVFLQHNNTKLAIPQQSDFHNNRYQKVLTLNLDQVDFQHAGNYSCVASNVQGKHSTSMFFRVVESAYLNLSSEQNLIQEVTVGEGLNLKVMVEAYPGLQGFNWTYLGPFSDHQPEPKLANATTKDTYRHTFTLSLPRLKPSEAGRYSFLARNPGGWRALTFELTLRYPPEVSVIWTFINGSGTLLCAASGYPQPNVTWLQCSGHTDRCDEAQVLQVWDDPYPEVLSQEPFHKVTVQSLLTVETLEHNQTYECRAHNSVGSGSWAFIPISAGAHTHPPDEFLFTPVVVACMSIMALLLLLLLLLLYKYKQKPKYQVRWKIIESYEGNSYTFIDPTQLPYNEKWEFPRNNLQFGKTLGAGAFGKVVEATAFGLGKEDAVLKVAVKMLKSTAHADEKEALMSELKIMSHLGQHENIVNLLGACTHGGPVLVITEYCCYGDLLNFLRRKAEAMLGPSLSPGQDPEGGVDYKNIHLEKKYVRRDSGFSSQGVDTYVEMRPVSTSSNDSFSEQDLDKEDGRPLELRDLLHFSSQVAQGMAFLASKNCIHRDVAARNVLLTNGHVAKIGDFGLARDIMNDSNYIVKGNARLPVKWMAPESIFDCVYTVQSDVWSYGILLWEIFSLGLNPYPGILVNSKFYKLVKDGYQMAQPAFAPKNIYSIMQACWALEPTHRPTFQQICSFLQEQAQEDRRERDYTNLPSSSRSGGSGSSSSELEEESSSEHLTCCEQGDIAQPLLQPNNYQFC

NCCCC(O)(P(=O)(O)O)P(=O)(O)O [Alendronate, reference compound]
change in CTX-I levels compared to the PBS treated animals [1]: significant decrease in CTX-I levels
CTX-I serum-concentration ([1]; individual animals n 1-6, * haemolytic sample): 25.4 and 20.03* and 18.21* and 27.86* and 19.1 and 20.9

cRGDfV [reference compound]
Kd [2]: 158 nM

vitronectin: one of the ligands of αvβ3 integrin
Kd [2]: 40.7 nM

B1: M-CSFαvβ3: variant 4.22 with histidine to alanine mutations at positions 9 and 15; binds αvβ3 integrin but not c-FMS (protein)
chain: EEVSEYCSAMIGSGALQSLQRLIDQTSRGDSPSITFEFVDQEQLKDPVCYLKKAFLLVQDIMEDTMRFRDNTPNAIAIVQLQELSLRLKSCFTKDYEEHDKACVRTFYETPLQLLEKVKNVFNETKNLLDKDWNIFSKNCNNSFAECSSQGHERQSEGS
modifications: left off: small tags and cut ends
actin ring formation [3]: decreased the condensation and density of podosomes
dimerization after BS^3 cross linking ([4]; Example 4, BS^3 up to 2500 μM, FIG. 8): did not show any dimerization

B2: M-CSF: native monocyte/macrophage colony stimulating factor, natural ligand of c-FMS (Uniprot P09603) (protein, UniProt P09603 33-554, looked up)
Macrophage colony-stimulating …: EEVSEYCSHMIGSGHLQSLQRLIDSQMETSCQITFEFVDQEQLKDPVCYLKKAFLLVQDIMEDTMRFRDNTPNAIAIVQLQELSLRLKSCFTKDYEEHDKACVRTFYETPLQLLEKVKNVFNETKNLLDKDWNIFSKNCNNSFAECSSQDVVTKPDCNCLYPKAIPSSDPASVSPHQPLAPSMAPVAGLTWEDSEGTEGSSLLPGEQPLHTVDPGSAKQRPPRSTCQSFEPPETPVVKDSTIGGSPQPRPSVGAFNPGMEDILDSAMGTNWVPEEASGEASEIPVPQGTELSPSRPGGGSMQTEPARPSNFLSASSPLPASAKGQQPADVTGTALPRVGPVRPTGQDWNHTPQKTDHPSALLRDPPEPGSPRISSLRPQGLSNPSTLSAQPQLSRSHSSGSVLPLGELEGRRSTRDRRSPAEPEGGPASEGAARPLPRFNSVPLTDTGHERQSEGSFSPQLQESVFHLLVPSVILVLLAVGGLLFYRWRRRSHQEPQRADSPLEQPEGSPLTQDDRQVELPV
Kd [5]: 13.6 nM

B3: murine M-CSFWT: wild-type murine M-CSF, positive control in cross-linking (protein)
chain: KEVSEHCSHMIGNGHLKVLQQLIDSQMETSCQIAFEFVDQEQLDDPVCYLKKAFFLVQDIIDETMRFKDNTPNANATERLQELSNNLNSCFTKDYEEQNKACVRTFHETPLQLLEKIKNFFNETKNLLEKDWNIFTKNCNNSFAKCSSRDVVTKPDCNCLYPKATPSSDPASASPHQPPAPSMAPLAGLAWDDSQRTEGSSLLPSELPLRIEDPGSAKQRPPR
monomer/dimer bands after BS^3 cross linking ([4]; Example 11, BS^3 0-2500 μM, SDS-PAGE, FIG. 16A): almost entirely in a band with a molecular weight that fits the dimer size
